From FireProtDB (doi:10.1021/bi012084+)
“And” between values parts separate entries of the source, which are not always exact repeats. Identical values can stand only once.

B1: Glyceraldehyde-3-phosphate dehydrogenase, P00362 (parent)
chain: MAVKVGINGFGRIGRNVFRAALKNPDIEVVAVNDLTDANTLAHLLKYDSVHGRLDAEVSVNGNNLVVNGKEIIVKAERDPENLAWGEIGVDIVVESTGRFTKREDAAKHLEAGAKKVIISAPAKNEDITIVMGVNQDKYDPKAHHVISNASCTTNCLAPFAKVLHEQFGIVRGMMTTVHSYTNDQRILDLPHKDLRRARAAAESIIPTTTGAAKAVALVLPELKGKLNGMAMRVPTPNVSVVDLVAELEKEVTVEEVNAALKAAAEGELKGILAYSEEPLVSRDYNGSTVSSTIDALSTMVIDGKMVKVVSWYDNETGYSHRVVDLAAYIASKGL

Variants of: B1
Details: Geobacillus stearothermophilus, pH 7.5, Thermal, DSC, KH2PO4/KOH 100 mM, reversible: no, structure 1GD1, whole UniProt chain shown

Variant | unfolding enthalpy (calorimetric) | Tm | unfolding enthalpy (calorimetric) (transition: 3) | Tm (transition: 3)
D284G | 140 kcal/mol and 148 kcal/mol and 119 kcal/mol |  |  | 
W312F | 371 kcal/mol and 525 kcal/mol |  |  | 
T36Q T40S L44Q | 215 kcal/mol and 176 kcal/mol | 64.8 °C and 66.8 °C | 215 kcal/mol and 127 kcal/mol | 
Y47G R53G |  |  | 214 kcal/mol and 127 kcal/mol and 180 kcal/mol | 
Y47G S49G |  |  | 127 kcal/mol | 70.2 °C and 71.2 °C
N315T | 138 kcal/mol | 62.3 °C |  | 65.5 °C
Y285V | 182 kcal/mol and 397 kcal/mol and 178 kcal/mol |  |  | 
